Source: patent US20230055411A1 (UNIVERSIT DE BRETAGNE OCCIDENTALE UBO, published 2023)

Tests used:
[1] = biological target: T1, recombinant STIM1 EF/SAM peptide (STIM1 aa 58 to 201) (human, UniProt Q13586 58-201); experiment: Octet, 1 to 1 fitting model, EF-SAM peptide at 200 nM [table row 200]
T1 construct: also called STIM1 EF/Hand peptide; soluble recombinant protein corresponding to the STIM1 EF-Hand domain
Experimental: (§1) FIG. 10 represents the determination of the anti-STIM1 mAb clone B-Y12 affinity. […] High affinity interaction is characterized by a low K, a fast recognizing (high kon) and a stable formation of complexes (low kdis). kdis: dissociation rate constant. kon: complex formation rate.
(§2) Affinity constants (Kon, Kdis) were calculated.

[2] = biological target: T1, recombinant STIM1 EF/SAM peptide (STIM1 …); experiment: Octet, 1 to 1 fitting model, EF-SAM peptide at 133,5 nM [table row 133,5]
Experimental: as §1, §2

peptide 1B = biological target: T2, peptide 1B (biotinylated in the ELISA of Figure 3 panel A); experiment: ELISA, biotinylated peptide 1B at 50 ng/well, B-Y12 in 1/10 steps
T2 construct: also called STIM1 aa 169 to 197
T2 sequence (peptide, as listed by the source): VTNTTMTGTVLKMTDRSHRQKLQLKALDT
Experimental: (§3) FIG. 3 illustrated the validation by Elisa of the monoclonal anti-STIM1 antibody clone B-Y12. […] Anti-STIM1 mAb clone B-Y12 mAb (10 μg/ml) was diluted to 1/10 and antigens STIM1 biotinylated peptides used at concentrations of 50 ng/well for peptides 1A and 1B and 100 ng/well for peptide 2A and 10 ng/well for peptide 2B). Panel B: Specificity of the B-Y12 antibody for STIM1 is confirmed by ELISA using the peptide 1A and a recombinant STIM1 EF/SAM peptide (1 μg/mL). B-Y12 mAb used at 100 μg/mL diluted to 1/10. Panel C: Specificity for the B-Y12 antibody for the peptide 1A over the other peptides (1A, 1B, 2A, 2B, C2, C3, C4, C5, C6, C7 and C8. Peptides are used at a concentration of 1 μg/mL. Histograms represents mean optical density (OD) measured using an Elisa approach.

[3] = biological target: T1, recombinant STIM1 EF/SAM peptide (STIM1 …); experiment: Octet, 1 to 1 fitting model, EF-SAM peptide at 133,5 nM; column kdis(1/S) [table row 133,5]
Experimental: as §1, §2

[4] = biological target: T1, recombinant STIM1 EF/SAM peptide (STIM1 …); experiment: Octet, 1 to 1 fitting model, EF-SAM peptide at 200 nM; column kdis(1/S) [table row 200]
Experimental: as §1, §2

peptide 2B = biological target: T3, peptide 2B (biotinylated in the ELISA of Figure 3 panel A); experiment: ELISA, biotinylated peptide 2B at 10 ng/well, B-Y12 in 1/10 steps
T3 construct: also called STIM1 aa 97 to 127
T3 sequence (peptide, as listed by the source): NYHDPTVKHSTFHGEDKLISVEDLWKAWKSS
Experimental: as §3

[5] = biological target: T4, STIM1 protein, mouse (plasma membrane STIM1 on spleen B and T cells of MRL/Lpr and C57Bl/6 mice) (mouse, UniProt P70302 23-685); experiment: direct flow cytometry with PE coupled B-Y12, spleen B cells of MRL/Lpr mice (n=4) [B cells]
T4 construct: whole, on cells; also called mSTIM1 (mouse)
T4 sequence (P70302 23-685): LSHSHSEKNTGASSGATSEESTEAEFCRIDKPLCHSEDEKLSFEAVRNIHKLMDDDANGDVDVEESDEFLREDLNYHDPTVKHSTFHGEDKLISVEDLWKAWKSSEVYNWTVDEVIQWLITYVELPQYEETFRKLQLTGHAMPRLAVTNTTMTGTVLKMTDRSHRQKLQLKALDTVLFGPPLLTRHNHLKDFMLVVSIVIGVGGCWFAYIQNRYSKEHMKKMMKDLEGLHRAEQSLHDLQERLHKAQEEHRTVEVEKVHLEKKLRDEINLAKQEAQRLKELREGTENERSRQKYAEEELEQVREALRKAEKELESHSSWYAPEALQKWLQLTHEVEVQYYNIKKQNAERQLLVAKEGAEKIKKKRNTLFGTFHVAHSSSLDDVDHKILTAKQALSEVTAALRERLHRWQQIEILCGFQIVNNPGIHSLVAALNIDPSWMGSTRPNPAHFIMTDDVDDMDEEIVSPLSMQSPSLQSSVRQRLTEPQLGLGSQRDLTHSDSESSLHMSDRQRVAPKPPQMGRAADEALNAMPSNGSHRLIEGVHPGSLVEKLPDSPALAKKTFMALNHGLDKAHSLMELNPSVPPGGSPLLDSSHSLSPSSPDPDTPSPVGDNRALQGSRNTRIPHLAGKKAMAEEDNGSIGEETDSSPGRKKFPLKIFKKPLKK

peptide 2A = biological target: T5, peptide 2A (biotinylated in the ELISA of Figure 3 panel A); experiment: ELISA, biotinylated peptide 2A at 100 ng/well, B-Y12 in 1/10 steps
T5 construct: also called STIM1 aa 62 to 95
T5 sequence (peptide, as listed by the source): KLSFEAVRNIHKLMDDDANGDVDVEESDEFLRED
Experimental: as §3

[6] = biological target: T1, recombinant STIM1 EF/SAM peptide (STIM1 …); experiment: Octet (BLI), 1 to 1 fitting model, EF-SAM peptide at 200, 133.5 and 88.9 nM
Experimental: as §1, §2

[7] = biological target: T1, recombinant STIM1 EF/SAM peptide (STIM1 …); experiment: Octet, 1 to 1 fitting model, EF-SAM peptide at 88,8 nM [table row 88,8]
Experimental: as §1, §2

[8] = biological target: T6, STIM1 peptide 1A (STIM1 amino acids 128 to 168) (human, biotinylated in the ELISA of FIG. 3A (position not given)); experiment: ELISA, Peptide 1A (aa 128-168) coated at 1 µg/mL, B-Y12 titrated
T6 construct: Immunization peptide from the SAM domain of STIM1
T6 sequence (peptide, as listed by the source): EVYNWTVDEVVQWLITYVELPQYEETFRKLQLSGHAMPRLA
Experimental: as §3

[9] = biological target: T1, recombinant STIM1 EF/SAM peptide (STIM1 …); experiment: Octet, 1 to 1 fitting model, EF-SAM peptide at 88,8 nM; column kdis(1/S) [table row 88,8]
Experimental: as §1, §2

T1 sequence (Q13586 58-201): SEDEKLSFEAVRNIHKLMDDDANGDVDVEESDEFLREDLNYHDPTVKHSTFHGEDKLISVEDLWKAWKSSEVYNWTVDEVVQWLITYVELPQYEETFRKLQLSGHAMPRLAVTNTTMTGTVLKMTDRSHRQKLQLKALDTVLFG

- kon [1]: 20000 M⁻¹ s⁻¹
- kon [2]: 23700 M⁻¹ s⁻¹
- binding result (peptide 1B): no binding
- koff [3]: 0.000322 s⁻¹
- koff [4]: 0.0004 s⁻¹
- binding result (peptide 2B): no binding
- binding result [5]: binds
- binding result (peptide 2A): no binding
- Kd [6]: 15 nM
- kon [7]: 18800 M⁻¹ s⁻¹
- EC50 (read off the curve) [8]: ~4 ng/mL
- koff [9]: 0.000354 s⁻¹
B1: monoclonal anti-STIM1 antibody clone B-Y12 (antibody, IgG2b, V domains shown)
VH: QVQLQQPGAELVKPGASVKLSCKASGYTFTSYWMHWVKLRPGQGFEWIGETNPRNGGTNYNEKFKRKATLTVDKSSSTAYMQLSSLTSEDSAVYYCTITKTVRATWYFDYWGQGTTLTVSS
VL: DVLMTQTPLSLPVSLGDQASISCRSSQSIVHSNGNTYLEWYLQKPGQSPKLLIYKVSNRFSGVPDRFSGSGSGTDFTLKISRVEAEDLGVYYCFQGSHVPYTFGGGTKLEIK
notes: In direct flow cytometry it was used coupled to phycoerythrin (PE); also called B-Y12 mAb; anti-STIM1 mAb clone B-Y12
